± gives the standard deviation of the averaged measurements.
Test system: ATP
Experiment: switch fluorescence ratio, 500 uM ATP over buffer (Cy3 cluster intensity, sum of 5 cycles each) (fold (ratio)); higher = stronger signal-on switching upon ATP binding; sequences stand for … in TCGTCGGCAGCGTCAGATGTGTATAAGAGACAGTTTTTTTTTTTTTTTTTTTTTTTTT…TC
Conditions: aptamer strand: ATP DNA aptamer (quencher-CACCTGGGGGAGTATTGCGGAGGAAGG + anchor), 100 nM annealed; ATP concentration: 500 uM
In short: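 Switching-strand clusters labelled with Cy3 on a modified Illumina MiSeq flow-cell were annealed to 100 nM quencher-labelled ATP aptamer, imaged in selection buffer, and re-imaged after 15 min with 500 uM ATP at 22 °C. This was done over five cycles with NaOH stripping and re-annealing in between. The fluorescence ratio is summed target-cycle over summed buffer-cycle Cy3 intensity per cluster, averaged per switch-domain sequence, excluding clusters outside 100-1000 RFU.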
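Further: ATP exposure 15 min at 22 °C before imaging.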

In the case of TAAGGAAAGG, the switch fluorescence ratio is reported as 0.982 ± 0.027.
For GGTGCGTTCT, the switch fluorescence ratio was 1 ± 0.043.
Work on ACCAAGCCAT yielded a switch fluorescence ratio of 1.09 ± 0.077.
For TGTTTGACAT, the switch fluorescence ratio was 0.98 ± 0.02.
With CGTCTACATG the switch fluorescence ratio was 1.03 ± 0.027.
For AGATAATTAG, the switch fluorescence ratio was 1 ± 0.023.
Work on GCAGGTTGGT yielded a switch fluorescence ratio of 1.036 ± 0.0042.
Work on TTGATGGGTG yielded a switch fluorescence ratio of 0.995 ± 0.015.
In the case of GAGTCTGGGG, the switch fluorescence ratio is reported as 0.978 ± 0.049.
Sequence TCGCTGGTTG has a switch fluorescence ratio of 0.996 ± 0.022.
In the case of TTTGGATTTT, the switch fluorescence ratio is reported as 1 ± 0.045.
Sequence ATTTTTTTAG has a switch fluorescence ratio of 0.988 ± 0.02.
For TTACTGCGGT, the switch fluorescence ratio was 1.014 ± 0.0034.
For ATCGTGTGTG, the switch fluorescence ratio was 0.991 ± 0.035.
In the case of GCGGGGGGCC, the switch fluorescence ratio is reported as 1.05 ± 0.1.
AAATTTCATT showed a switch fluorescence ratio of 1 ± 0.041.
In the case of CTGATTACGC, the switch fluorescence ratio is reported as 1.37 ± 0.016.
ATAGGGAGGC was tested, and the switch fluorescence ratio was 0.967 ± 0.035.
ATACCCAAGC was tested, and the switch fluorescence ratio was 1.09 ± 0.011.
CCTGAGGGAT gave a switch fluorescence ratio of 1.86 ± 1.4.
ACGTTCGTAC showed a switch fluorescence ratio of 1.04 ± 0.012.
GGGTGTTTCT was tested, and the switch fluorescence ratio was 1.01 ± 0.028.
Sequence CGTTATAAAG has a switch fluorescence ratio of 0.9811 ± 0.0012.
For GTGTAATGGT, the switch fluorescence ratio was 1.03 ± 0.021.
AAGTATAGCA gave a switch fluorescence ratio of 1.03 ± 0.014.
GCCGGGTCCG gave a switch fluorescence ratio of 0.9938 ± 0.0011.
With CGTTGATAAG the switch fluorescence ratio was 0.997 ± 0.022.
With TAATTTGGTT the switch fluorescence ratio was 1.01 ± 0.026.
Work on ATAGCTTGTG yielded a switch fluorescence ratio of 0.996 ± 0.023.
CCGAATTGGG showed a switch fluorescence ratio of 1.01 ± 0.032.
ATTTTATGGG was tested, and the switch fluorescence ratio was 0.999 ± 0.019.
TGCCTTTTTT gave a switch fluorescence ratio of 1 ± 0.016.
GCATGATTTA gave a switch fluorescence ratio of 1 ± 0.051.
Sequence ATAACATTAG has a switch fluorescence ratio of 0.9984 ± 0.0069.
Work on GGGGTGACGT yielded a switch fluorescence ratio of 1.02 ± 0.031.
Sequence GGGACTATGA has a switch fluorescence ratio of 1 ± 0.021.
GTGAGTAAGC showed a switch fluorescence ratio of 1 ± 0.0035.
For GAGGGGCCGA, the switch fluorescence ratio was 0.973 ± 0.016.
With TGCGAGGGGA the switch fluorescence ratio was 1.01 ± 0.032.
For ACGGGAAGGC, the switch fluorescence ratio was 1.09 ± 0.035.
AAAAAATTGT was tested, and the switch fluorescence ratio was 0.999 ± 0.019.
Sequence ACGTATAGAA has a switch fluorescence ratio of 1.159 ± 0.0097.
Sequence CGGTTTATGG has a switch fluorescence ratio of 0.943 ± 0.022.
In the case of TCTGGCGGGG, the switch fluorescence ratio is reported as 1.21 ± 0.38.
TTTGTGGTAG showed a switch fluorescence ratio of 0.984 ± 0.011.
TAAAGAAAGC was tested, and the switch fluorescence ratio was 0.9755 ± 0.0029.
GGGGTGTACC was tested, and the switch fluorescence ratio was 0.985 ± 0.033.
In the case of TATATGGGGT, the switch fluorescence ratio is reported as 1 ± 0.042.
With AAAGCTGCTT the switch fluorescence ratio was 0.987 ± 0.024.
Work on TTTAGGAGGG yielded a switch fluorescence ratio of 0.997 ± 0.019.
GAAAGCATAT showed a switch fluorescence ratio of 1.01 ± 0.034.
AAAGGAGCGT showed a switch fluorescence ratio of 0.992 ± 0.041.
Work on TTAATAAAAA yielded a switch fluorescence ratio of 0.985 ± 0.028.
Work on AGCGGTTCAC yielded a switch fluorescence ratio of 1.018 ± 0.0029.
AGTCGGTGTG gave a switch fluorescence ratio of 0.963 ± 0.0099.
AACGTGACAG gave a switch fluorescence ratio of 1.06 ± 0.046.
With CTAGCACGGA the switch fluorescence ratio was 0.9713 ± 0.0093.
TTTGGCTACG was tested, and the switch fluorescence ratio was 1.01 ± 0.011.
Work on TAAAAAGGAC yielded a switch fluorescence ratio of 0.9809 ± 0.008.
Work on GGTTGGGTG yielded a switch fluorescence ratio of 1.03 ± 0.013.
With TTTAAATTTA the switch fluorescence ratio was 1.01 ± 0.028.
ATGGTATTTG showed a switch fluorescence ratio of 0.998 ± 0.037.
In the case of CGGGACGCGA, the switch fluorescence ratio is reported as 1.28 ± 0.043.
Work on AATGTAGACT yielded a switch fluorescence ratio of 1.017 ± 0.0084.
In the case of AAAAGTTTGC, the switch fluorescence ratio is reported as 1.02 ± 0.056.
Work on GAAGCTTGGT yielded a switch fluorescence ratio of 0.972 ± 0.041.
TATGAGGCCA gave a switch fluorescence ratio of 1.04 ± 0.023.
Sequence TAGTTCATGG has a switch fluorescence ratio of 0.991 ± 0.019.
Work on TTGGGGGAGG yielded a switch fluorescence ratio of 0.989 ± 0.021.
Sequence AGGGTTGTGA has a switch fluorescence ratio of 1 ± 0.026.
TATAGGCTCA gave a switch fluorescence ratio of 0.976 ± 0.033.
Work on TCGGGGTTTT yielded a switch fluorescence ratio of 1.02 ± 0.036.
Sequence ATAGGCTATA has a switch fluorescence ratio of 0.976 ± 0.025.
GGGATATATT showed a switch fluorescence ratio of 0.9914 ± 0.0074.
With TAGGTCTAGG the switch fluorescence ratio was 1 ± 0.023.
For TTGGGATTAG, the switch fluorescence ratio was 1.01 ± 0.029.
Sequence CGGATAGGTT has a switch fluorescence ratio of 1.01 ± 0.017.
ATGACGCGTC gave a switch fluorescence ratio of 0.982 ± 0.045.
CTGTTCTAGT was tested, and the switch fluorescence ratio was 0.963 ± 0.045.
Sequence CTAGGTACTT has a switch fluorescence ratio of 1.03 ± 0.037.
GATACAGTAA was tested, and the switch fluorescence ratio was 1.06 ± 0.017.
Sequence TAACAGTTAA has a switch fluorescence ratio of 1.03 ± 0.027.
CGATAATGTG was tested, and the switch fluorescence ratio was 0.9727 ± 0.0063.
Work on GCTTGCGATG yielded a switch fluorescence ratio of 1.01 ± 0.011.
TCACATTTGG gave a switch fluorescence ratio of 1.03 ± 0.045.
GGAGTTATAA showed a switch fluorescence ratio of 1.05 ± 0.034.
Work on CTGTGTGAAG yielded a switch fluorescence ratio of 1 ± 0.038.
TTCGCGTGTT gave a switch fluorescence ratio of 1.003 ± 0.0055.
CGGATATATA showed a switch fluorescence ratio of 1.08 ± 0.049.
ATCCGGGTGG gave a switch fluorescence ratio of 1 ± 0.059.
In the case of AAACTCATGA, the switch fluorescence ratio is reported as 0.983 ± 0.02.
In the case of CTTCGCACGG, the switch fluorescence ratio is reported as 3.54 ± 0.37.
In the case of TTTACCGCTA, the switch fluorescence ratio is reported as 1.94 ± 0.58.
Sequence AGAACTCACC has a switch fluorescence ratio of 1.19 ± 0.049.
In the case of TTTGTTCACG, the switch fluorescence ratio is reported as 0.991 ± 0.01.
GGAATCCGGC was tested, and the switch fluorescence ratio was 1.06 ± 0.02.
With CTGGTTGCGG the switch fluorescence ratio was 0.979 ± 0.021.
Work on AGGGTGCGGA yielded a switch fluorescence ratio of 0.989 ± 0.036.
Work on ATTTGCAAAG yielded a switch fluorescence ratio of 1.12 ± 0.21.
Sequence TCAGGGTGTC has a switch fluorescence ratio of 1.33 ± 0.17.
For CCCTAGTATG, the switch fluorescence ratio was 0.9915 ± 0.0059.
In the case of GTTCGTGTGG, the switch fluorescence ratio is reported as 0.987 ± 0.028.
TTGATCAACG showed a switch fluorescence ratio of 0.995 ± 0.014.
Work on ATATGTTGTC yielded a switch fluorescence ratio of 0.894 ± 0.11.
Work on GTAGCAGGGG yielded a switch fluorescence ratio of 1.3 ± 0.068.
Work on GGTCCTTAAT yielded a switch fluorescence ratio of 0.989 ± 0.025.
With AGTTGGACGC the switch fluorescence ratio was 1.07 ± 0.021.
Sequence GGTGCGGGAC has a switch fluorescence ratio of 1.16 ± 0.12.
For TAATCAACGA, the switch fluorescence ratio was 1 ± 0.019.
Work on GGTGTGTTTG yielded a switch fluorescence ratio of 1.01 ± 0.046.
Sequence CGGACTCCCA has a switch fluorescence ratio of 1.753 ± 0.014.
CGGGTTTGCG showed a switch fluorescence ratio of 0.992 ± 0.036.
With AATCGCGTTT the switch fluorescence ratio was 1.017 ± 0.0012.
CTTGTTGGGT was tested, and the switch fluorescence ratio was 0.999 ± 0.033.
In the case of TGCCGGGGGC, the switch fluorescence ratio is reported as 1.04 ± 0.025.
Work on ACACTAGTGT yielded a switch fluorescence ratio of 0.985 ± 0.032.
With GGGAACGGAA the switch fluorescence ratio was 2.4 ± 1.8.
TTCTAAGTA showed a switch fluorescence ratio of 1.021 ± 0.0044.
TGAAGGCAGG gave a switch fluorescence ratio of 1.01 ± 0.072.
Work on CCGTTGTTTG yielded a switch fluorescence ratio of 0.979 ± 0.011.
TAACGCTAGA was tested, and the switch fluorescence ratio was 1.06 ± 0.03.
In the case of CCCAGGGT, the switch fluorescence ratio is reported as 1.54 ± 0.67.
For GGGAGCCCGG, the switch fluorescence ratio was 0.989 ± 0.038.
Sequence TGAGTTGATT has a switch fluorescence ratio of 1.01 ± 0.069.
GATGGGATGG was tested, and the switch fluorescence ratio was 0.993 ± 0.039.
Sequence ATGGCCGAGT has a switch fluorescence ratio of 1.03 ± 0.038.
Sequence TCAATGGGGC has a switch fluorescence ratio of 0.979 ± 0.044.
ACATTAATTC showed a switch fluorescence ratio of 0.99573 ± 0.00079.
Work on CGAGTATGCA yielded a switch fluorescence ratio of 0.981 ± 0.024.
For TGAAAACGGT, the switch fluorescence ratio was 1 ± 0.035.
For TTTGGGTGCG, the switch fluorescence ratio was 0.998 ± 0.04.
With ATGTTGGGAC the switch fluorescence ratio was 1.02 ± 0.032.
TAACAGATGG was tested, and the switch fluorescence ratio was 1.01 ± 0.029.
For AAATGGGTGG, the switch fluorescence ratio was 0.997 ± 0.025.
With GAGTATTGGG the switch fluorescence ratio was 0.9897 ± 0.0087.
Sequence AAAAGGCGTG has a switch fluorescence ratio of 1.01 ± 0.021.
For CCGTAATAGG, the switch fluorescence ratio was 4.83 ± 0.55.
For TCGTAGTTGC, the switch fluorescence ratio was 1.24 ± 0.027.
For AAGAAAGGCA, the switch fluorescence ratio was 0.998 ± 0.033.
With TCGTATTGTG the switch fluorescence ratio was 0.975 ± 0.032.
Work on TTAAGTGAC yielded a switch fluorescence ratio of 1.06 ± 0.028.
GGGGAATTAT showed a switch fluorescence ratio of 1.03 ± 0.0058.
Sequence GGGGTCAGGT has a switch fluorescence ratio of 1 ± 0.024.
TTTGGTCGTG gave a switch fluorescence ratio of 1.042 ± 0.0036.
For AATGAGGGTA, the switch fluorescence ratio was 1.04 ± 0.019.
In the case of GATTCAAGAT, the switch fluorescence ratio is reported as 0.993 ± 0.03.
Sequence TATTTAGTCT has a switch fluorescence ratio of 1 ± 0.026.
Sequence GCAAACGCAG has a switch fluorescence ratio of 1.05 ± 0.032.
CAGGGGGGG was tested, and the switch fluorescence ratio was 1 ± 0.011.
Sequence TTGTAATTAA has a switch fluorescence ratio of 0.9963 ± 0.0096.
Work on ATGAAGCATG yielded a switch fluorescence ratio of 1.08 ± 0.04.
TGTGAATGGG gave a switch fluorescence ratio of 1.02 ± 0.017.
GAAGACAGTA showed a switch fluorescence ratio of 1.01 ± 0.013.
Work on TCACGTGTCA yielded a switch fluorescence ratio of 0.9999 ± 0.0089.
Work on GTAACTAATG yielded a switch fluorescence ratio of 1.02 ± 0.02.
Work on TGTGTGTAAG yielded a switch fluorescence ratio of 1.001 ± 0.0067.
In the case of CTTTCAATGG, the switch fluorescence ratio is reported as 1.07 ± 0.015.

Source: the supplement of paper PMC10126150
